From the supplement of paper PMC9233669
This sample holds only a part of the variants without activity.

Experiments:
biotinyl-Val-oxazolone = test: self-aminoacylation, catalytic enhancement (BVO) (fold over background); higher = more active; k-Seq, kA / k0A0; sequences stand for … in GGGAAUGGAUCCACAUCUACGAAUUC…UUCACUGCAGACUUGACGAAGCUG
How it was run: (§1)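 Mutagenized RNA pools with a 21-nt variable region (0.43 μM) were reacted with each biotinyl-aminoacyl-oxazolone at 2–1250 μM for 90 minutes at room temperature, in 50 μL HEPES/NaCl/KCl/MgCl2/CaCl2 buffer containing 5% acetonitrile at pH 6.9–7.0. RNA captured on streptavidin was quantified by triplicate qPCR and by Illumina sequencing. The fraction reacted for each sequence was fit to a pseudo-first-order model with bootstrapping, and catalytic enhancement is the median kA divided by the uncatalyzed rate, taken as the low-activity peak of a bimodal Gaussian fit.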

biotinyl-Phe-oxazolone = test: self-aminoacylation, catalytic enhancement (BFO) (fold over background); higher = more active; k-Seq, kA / k0A0; sequences stand for … in GGGAAUGGAUCCACAUCUACGAAUUC…UUCACUGCAGACUUGACGAAGCUG
How it was run: as §1

biotinyl-Ile-oxazolone = test: self-aminoacylation, catalytic enhancement (BIO) (fold over background); higher = more active; k-Seq, kA / k0A0; sequences stand for … in GGGAAUGGAUCCACAUCUACGAAUUC…UUCACUGCAGACUUGACGAAGCUG
How it was run: as §1

biotinyl-Met-oxazolone = test: self-aminoacylation, catalytic enhancement (BMO) (fold over background); higher = more active; k-Seq, kA / k0A0; sequences stand for … in GGGAAUGGAUCCACAUCUACGAAUUC…UUCACUGCAGACUUGACGAAGCUG
How it was run: as §1

biotinyl-Leu-oxazolone = test: self-aminoacylation, catalytic enhancement (BLO) (fold over background); higher = more active; k-Seq, kA / k0A0; sequences stand for … in GGGAAUGGAUCCACAUCUACGAAUUC…UUCACUGCAGACUUGACGAAGCUG
How it was run: as §1

biotinyl-Trp-oxazolone = test: self-aminoacylation, catalytic enhancement (BWO) (fold over background); higher = more active; k-Seq, kA / k0A0; sequences stand for … in GGGAAUGGAUCCACAUCUACGAAUUC…UUCACUGCAGACUUGACGAAGCUG
How it was run: as §1

| Sequence | self-aminoacylation (biotinyl-Val-oxazolone) | self-aminoacylation (biotinyl-Phe-oxazolone) | self-aminoacylation (biotinyl-Ile-oxazolone) | self-aminoacylation (biotinyl-Met-oxazolone) | self-aminoacylation (biotinyl-Leu-oxazolone) | self-aminoacylation (biotinyl-Trp-oxazolone) |
| --- | --- | --- | --- | --- | --- | --- |
| AAGUUUGCUAAUAGACGCUAG [Fam3.1 aminoacylation ribozyme variant] | 0.654 | 0.777 | 0.547 | 0.754 | 0.495 | 0.501 |
| CUACUUCAACCAAUCGGACUG [Fam1A.1 aminoacylation ribozyme variant] | 0.946 | 10.7 | 0.79 | 0.814 | 0.851 | 4.9 |
| CCACUCUUCACGCAAUCGGUC [Fam1B.1 aminoacylation ribozyme variant] | 1.21 | 0.819 | 1.08 | 1.05 | 1.13 | 0.952 |
| CCACACUUCAUGCAAUCGGUU [Fam1B.1 aminoacylation ribozyme variant] | 1.26 | 0.766 | 1.2 | 1.33 | 1.37 | 0.843 |
| AUUCCCCUGGUCAACGAGUGA [Fam2.1 aminoacylation ribozyme variant] | 4.67 | 49.5 | 4.6 | 8.04 | 7.82 | 8.98 |
| AUCACCCUGGUCAUCGGGUGA [Fam2.1 aminoacylation ribozyme variant] | 5.27 | 33.4 | 5.17 | 9.05 | 9.48 | 14.1 |
| AAGUUUGCUAAGAGUCGUAAG [Fam3.1 aminoacylation ribozyme variant] | 0.757 | 7.41 | 0.61 | 0.708 | 0.535 | 2.31 |
| AUUACGCUGGUCCUCGAGUGA [Fam2.1 aminoacylation ribozyme variant] | 4.14 | 44.8 | 4.15 | 6.22 | 6.05 | 6.54 |
| UUACUACAAACAAUCGGUCUG [Fam1A.1 aminoacylation ribozyme variant] | 0.833 | 1.62 | 1.04 | 0.904 | 0.856 | 1.31 |
| AUUAAACUAGGUCAUCGGGUG [Fam2.2 aminoacylation ribozyme variant] | 3.11 | 23 | 2.89 | 3.79 | 5.02 | 4.43 |
| AUUACCCUGCUCAGCGAGUGA [Fam2.1 aminoacylation ribozyme variant] | 2.76 | 18.5 | 2.24 | 3.61 | 3.79 | 4.77 |
| CCACUUCAAACAAUCGGUCAG [Fam1A.1 aminoacylation ribozyme variant] | 1.04 | 13.7 | 1.01 | 0.992 | 1.03 | 9.79 |
| AUUUACCUAGGUCCUCGGGUG [Fam2.2 aminoacylation ribozyme variant] | 3.3 | 28.6 | 3.33 | 4.15 | 6.13 | 4.31 |
| CUACGUCAGACAAUCGGUCUG [Fam1A.1 aminoacylation ribozyme variant] | 1.42 | 1.67 | 1.61 | 1.86 | 1.28 | 0.99 |
| AUUACCCAGGUCAUCGAGUGU [Fam2.1 aminoacylation ribozyme variant] | 2.06 | 2.45 | 1.65 | 2.74 | 2.71 | 3.39 |
| AUUACCCUGGCCCUCGAGUGA [Fam2.1 aminoacylation ribozyme variant] | 3.42 | 24.1 | 2.5 | 4.04 | 4.5 | 3.6 |
| UUUCACCUAGGUCAUCGGCUG [Fam2.2 aminoacylation ribozyme variant] | 2.29 | 8.98 | 1.93 | 1.89 | 1.82 | 2.74 |
| AUCCACCUAGGUCAUUGGGUG [Fam2.2 aminoacylation ribozyme variant] | 3.24 | 24.6 | 3.51 | 3.76 | 3.86 | 3.8 |
| AUUAACCUAGGUGAUCGGGUG [Fam2.2 aminoacylation ribozyme variant] | 2.1 | 8.95 | 2.31 | 3.25 | 3.63 | 2.9 |
| CAGUUUGCAAAUAGUCGCAAG [Fam3.1 aminoacylation ribozyme variant] | 1.52 | 2.37 | 1.72 | 1.65 | 2.03 | 2.02 |
| AUUCACCUAGGGCAUCGGUUG [Fam2.2 aminoacylation ribozyme variant] | 0.969 | 0.577 | 1.02 | 1.05 | 1.12 | 0.909 |
| AUUCACCUGGGUCAUCGGGUA [Fam2.2 aminoacylation ribozyme variant] | 10.6 | 47.8 | 8.3 | 18.6 | 22.3 | 14.8 |
| CCACACUUGAACCAAUCGGUC [Fam1B.1 aminoacylation ribozyme variant] | 0.819 | 0.969 | 0.804 | 0.673 | 0.635 | 0.742 |
| CCACAGUUCAUGCAAUCGGUC [Fam1B.1 aminoacylation ribozyme variant] | 1.12 | 0.779 | 1.1 | 0.972 | 1.16 | 0.884 |
| AUUACCGUGGUCCUCGAGUGA [Fam2.1 aminoacylation ribozyme variant] | 3.69 | 29.2 | 2.57 | 4.11 | 4.19 | 4.82 |
| CUACUGCAAACAAUCGGUCUC [Fam1A.1 aminoacylation ribozyme variant] | 0.885 | 0.785 | 0.855 | 0.916 | 0.716 | 0.681 |
